Results published in JP2016528193A (dated 2016).

Legend:
ヒトPCSK9(野生型) [1] = target: ヒトPCSK9(野生型) (human); assay: KinExA solution equilibrium, PCSK9-coated beads
ヒトPCSK9(野生型) [2] = target: ヒトPCSK9(野生型) (human); assay: Biacore at pH 6.0 (HBS-P with 0.01 % BSA), fitted from competition curves, n=1

B1: 31H4 (antibody, V domains shown)
VH: EVQLVESGGGLVKPGGSLRLSCAASGFTFSSYSMNWVRQAPGKGLEWVSSISSSSSYISYADSVKGRFTISRDNAKNSLYLQMNSLRAEDTAVYFCARDYDFWSAYYDAFDVWGQGTMVTVSS
VL: QSVLTQPPSVSGAPGQRVTISCTGSSSNIGAGYDVHWYQQLPGTAPKLLISGNSNRPSGVPDRFSGSKSGTSASLAITGLQAEDEADYYCQSYDSSLSGSVFGGGTKLTVLQ
- Kd (ヒトPCSK9(野生型) [1]): 0.003 nM
- Kd (ヒトPCSK9(野生型) [2]): 0.0125 nM

B2: 16F12 (antibody, V domains shown)
VH: QVHLVESGGGVVQPGRSLRLSCAASGFTFNSFGMHWVRQAPGKGLEWVALIWSDGSDEYYADSVKGRFTISRDNSKNTLYLQMNSLRAEDTAVYYCARAIAALYYYYGMDVWGQGTTVTVSS
VL: QSVLTQPPSVSAAPGQKVTISCSGSSSNIGNNFVSWYQQLPGTAPKLLIYDYNKRPSGIPDRFSGSKSGTSATLGITGLQTGDEADYYCGTWDSSLSAYVFGTGTRVTVLQ
- Kd (ヒトPCSK9(野生型) [1]): 0.015 nM
- Kd (ヒトPCSK9(野生型) [2]): 0.029 nM
